Assay results from patent publication US20260139035A1 (NATIONAL UNIVERSITY CORPORATION KUMAMOTO UNIVERSITY, published 2026).

Target: spike protein of SARS-CoV (SARS-CoV, UniProt P59594 14-1255)
Assay: cell-based or functional assay

B1: 4-66 antibody (antibody, V domains shown)
VH: EVQLVESGGGLVQPGGSLRLSCAASGIIVSRNYMTWVRQAPGKGLEWVSVIYSGGTTYYADSVKGRFTTSRDDSKNTLYLQMNSLRGDDTAVYYCARDPPHRRGSYWGQGTLVTVSS
VL: DILMTQSPSSLSASVGDRVTITCQASQDINKYLNWYQQKPGKAPKLLIYDASNLETGVPSRFSGSGSGTDFSFTISSLQPEDVATYYCQQSDNLPPTFGQGTNVEIK
IC50, neutralization: 0.55 µg/mL
